Where two headings read alike, the source gives them in different places.
Tests used:
[1] = molecular target: the molecule itself; assay: dynamic light scattering
[2] = molecular target: the molecule itself; assay: dynamic light scattering; remark: listed apart in the source
[3] = molecular target: A3F-CD2 WT (human, UniProt Q8IUX4 190-373); assay: X-ray crystallography
[4] = molecular target: T1, A3F-CD2 E251A K352A/K355A/K358A (human, UniProt Q8IUX4 190-373, E251A;K352A;K355A;K358A); assay: EMSA
[5] = molecular target: T1, A3F-CD2 E251A K352A/K355A/K358A; assay: EMSA; remark: listed apart in the source

B1: wild-type hA3F-CD2 (APOBEC3F C-terminal catalytic domain, residues 190-373) (domain or fragment, human, UniProt Q8IUX4 190-373, looked up)
chain: NPMEAMYPHIFYFHFKNLRKAYGRNESWLCFTMEVVKHHSPVSWKRGVFRNQVDPETHCHAERCFLSWFCDDILSPNTNYEVTWYTSWSPCPECAGEVAEFLARHSNVNLTIFTARLYYFWDTDYQEGLRSLSQEGASVEIMGYKDFKYCWENFVYNDDEPFKPWKGLKYNFLFLDSKLQEILE
Q: How did the “stoichiometry N” value [1] turn out when B1 was run?
A: 2

Q: And the “stoichiometry N” value [2]?
A: 4

Q: Does TTTTTTTTTT (ssDNA) [10 nt poly-dT (crystal, DLS)] bind [3]?
A: binds

Q: Does AUUAUUAUUAUUUAUCCCUAUUUAUAUUUAUUGUUAUUGUUAUUGUUAUA (ssRNA) [50 nt RNA] bind [4]?
A: no binding

Q: Does TTTTTTTTTT (ssDNA) [10 nt poly-dT (FAM)] bind [5]?
A: no binding

From PMC5738261 (Journal of molecular biology, 2017)
